The values that follow come from the Immune Epitope Database (IEDB).

This test addresses HLA-A*02:01. As to the kind of experiment: IEDB peptide-MHC binding, purified MHC/competitive/fluorescence; ≥ and ≤ were set here for values at or beyond the usual limits of such assays. As to conditions: source organism: Homo sapiens.
On to AAAFVNQHL, for which the 50% inhibitory concentration (IC50) is 5.02 µM.
For the sequence AAAFVNQHLC, the 50% inhibitory concentration (IC50) is no less than 100 µM.
Turning to AAFVNQHLCG, the IC50 is no less than 100 µM.
The same measure for AEDLQVGQV: no less than 100 µM.
The result for AEDLQVGQVE reads no less than 100 µM; that for AFVNQHLCG, no less than 100 µM; that for AFVNQHLCGS, no less than 100 µM.
For AGSLQPLAL, the concentration for half-maximal inhibition (IC50) is no less than 100 µM.
As for AGSLQPLALE, the IC50 was no less than 100 µM.
The result for ALLALWGPD reads no less than 100 µM; that for ALWGPDPAA, 0.88 µM; that for CCTSICSLY, no less than 100 µM.
With CCTSICSLYQ, the IC50 was no less than 100 µM.
Turning to CTSICSLYQ, the IC50 is no less than 100 µM.
The result for CTSICSLYQL reads no less than 97.7 µM.
DLQVGQVEL: the 50% inhibitory concentration (IC50) is no less than 100 µM.
DLQVGQVELG returned an IC50 of no less than 100 µM.
The same measure for DPAAAFVNQ: no less than 100 µM; for DPAAAFVNQH: no less than 100 µM.
EAEDLQVGQ registered an IC50 of no less than 100 µM.
The same measure for EDLQVGQVE: no less than 100 µM; for EDLQVGQVEL: no less than 100 µM.
The same measure for ELGGGPGAG: no less than 100 µM; for ELGGGPGAGS: no less than 100 µM.
The same measure for EQCCTSICS: no less than 100 µM.
For EQCCTSICSL, the concentration for half-maximal inhibition (IC50) is no less than 100 µM.
As to ERGFFYTPK, the concentration for half-maximal inhibition (IC50) is no less than 100 µM.
The same measure for GAGSLQPLAL: no less than 100 µM.
The same measure for GGGPGAGSL: no less than 100 µM; for GGGPGAGSLQ: no less than 100 µM.
Sequence GGPGAGSLQ displayed an IC50 of no less than 100 µM.
The result for GGPGAGSLQP reads no less than 100 µM; that for GIVEQCCTS, no less than 100 µM; that for GPDPAAAFV, no less than 100 µM.
The same measure for GPDPAAAFVN: no less than 100 µM; for GPGAGSLQP: no less than 100 µM; for GQVELGGGP: no less than 100 µM.
For the sequence GQVELGGGPG, the 50% inhibitory concentration (IC50) was no less than 100 µM.
The sequence GSLQPLALE gave an IC50 of no less than 100 µM.
In turn, GSLQPLALEG registered a half-inhibitory concentration (IC50) of no less than 100 µM.
Take ICSLYQLEN: the IC50 was no less than 100 µM.
ICSLYQLENY yielded an IC50 of no less than 100 µM.
The result for IVEQCCTSI reads no less than 100 µM.
Sequence LALEGSLQK gave a 50% inhibitory concentration (IC50) of no less than 100 µM.
In turn, LALLALWGP returned a half-inhibitory concentration (IC50) of no less than 100 µM.
The same measure for LALWGPDPA: no less than 100 µM; for LGGGPGAGS: no less than 100 µM; for LGGGPGAGSL: no less than 100 µM.
The result for LLALLALWG reads no less than 100 µM.
The sequence LLALLALWGP displayed a 50% inhibitory concentration (IC50) of 29.6 µM.
The same measure for LLALWGPDPA: 1.96 µM.
LLPLLALLA registered a 50% inhibitory concentration (IC50) of 1.37 µM.
The same measure for LLPLLALLAL: 5.84 µM; for LPLLALLAL: 11.8 µM; for LPLLALLALW: no less than 100 µM.
LQPLALEGS came in with a 50% inhibitory concentration (IC50) of no less than 100 µM.
The result for LQPLALEGSL reads no less than 100 µM; that for LQVGQVELG, no less than 100 µM.
Sequence LQVGQVELGG came in with an IC50 of no less than 100 µM.
Consider LWGPDPAAA, for which the IC50 is no less than 100 µM.
The same measure for LWGPDPAAAF: no less than 100 µM; for LYQLENYCN: no less than 100 µM; for PAAAFVNQH: no less than 100 µM.
Consider PAAAFVNQHL, for which the concentration for half-maximal inhibition (IC50) was no less than 100 µM.
The same measure for PDPAAAFVN: no less than 100 µM; for PDPAAAFVNQ: no less than 100 µM.
Take PGAGSLQPL: the IC50 is no less than 100 µM.
Sequence PGAGSLQPLA displayed a concentration for half-maximal inhibition (IC50) of no less than 100 µM.
As to PLALEGSLQ, the IC50 is no less than 100 µM.
The result for PLALEGSLQK reads no less than 100 µM.
Take PLLALLALW: the 50% inhibitory concentration (IC50) was no less than 100 µM.
The result for PLLALLALWG reads 43.5 µM.
The sequence QCCTSICSLY gave an IC50 of no less than 100 µM.
Turning to QPLALEGSL, the IC50 was no less than 100 µM.
With QPLALEGSLQ, the 50% inhibitory concentration (IC50) was no less than 100 µM.
The result for QVELGGGPG reads no less than 100 µM; that for QVELGGGPGA, no less than 100 µM.
As for QVGQVELGG, the half-inhibitory concentration (IC50) was no less than 100 µM.
The same measure for QVGQVELGGG: no less than 100 µM; for SICSLYQLE: no less than 100 µM.
The result for SICSLYQLEN reads no less than 100 µM.
The same measure for SLQPLALEGS: no less than 88 µM; for SLYQLENYCN: no less than 100 µM.
Sequence TSICSLYQL yielded a half-inhibitory concentration (IC50) of no less than 100 µM.
The result for TSICSLYQLE reads no less than 100 µM; that for VELGGGPGA, no less than 100 µM.
For the sequence VELGGGPGAG, the half-maximal inhibitory concentration (IC50) was no less than 100 µM.
The same measure for VEQCCTSIC: no less than 100 µM.
Sequence VEQCCTSICS displayed an IC50 of no less than 100 µM.
The result for VGQVELGGG reads no less than 100 µM; that for VGQVELGGGP, no less than 100 µM; that for WGPDPAAAF, no less than 100 µM.
As to WGPDPAAAFV, the concentration for half-maximal inhibition (IC50) stood at 4.46 µM.

By IC50 is commonly meant the midpoint of a concentration-inhibition curve. A higher IC50 goes with weaker potency.
